Results from PMC10478522.

What was measured:
[1] = target: AcrIC9 from Rhodobacter capsulatus (Rhodobacter capsulatus); test: SEC-MALS; purified AcrIC9 alone on Superdex 200 Increase 10/300 GL, 20 mM Tris-HCl pH 8.0, 150 mM NaCl, room temperature; dimer to monomers
[2] = target: type IC cascade from Neisseria lactamica (NlaCascade/crRNA complex) (Neisseria lactamica); test: SPR; BIAcore T200, NlaCascade/crRNA complex captured on a Ni-NTA chip (711-826 RU), AcrIC9 injected in twofold dilutions from 125 nM (8 to 125 nM), HBS-P buffer (0.01 M HEPES pH 7.4, 0.15 M NaCl, 0.005% P20), 25°C, 1:1 binding model
[3] = target: type IC cascade from Neisseria lactamica with crRNA (Neisseria lactamica); test: SPR; BIAcore T200; NlaCascade/crRNA complex captured on a Ni-loaded NTA chip (711-826 RU); AcrIC9 injected in twofold dilutions from 125 nM at 30 ul/min, 120 s contact, 240 s dissociation; 25 °C; HBS-P buffer (0.01 M HEPES pH 7.4, 0.15 M NaCl, 0.005% Surfactant P20); 1:1 binding model

B1: AcrIC9 from Rhodobacter capsulatus (natural protein)
chain: METKMTSFYKITAYNSQALYFWGTDADVDRYVDWLNRDREINVYAAEAIPEAEWAQYEGRDDVLSGEECGWDDFMSAEA
stoichiometry N [1]: 2
Kd [2]: 4.32 nM
Kd [3]: 43.2 nM
koff [3]: 0.00404 s⁻¹
kon [3]: 93500 M⁻¹ s⁻¹
